Measured values reported in US5856161, “Tumor necrosis factor receptor-I-associated protein kinase and methods for its use” (Research Development Foundation, dated 1999).
Values belong to the binder of their own block, whether it stands above or below them.

How the values were obtained:
cdk4 = cdk4 (human, UniProt P11802); test: precipitation of U937 cell extracts with p13^suc1 -agarose, immunoblot
Experimental: U937 cells (4×10^6) were lysed and precipitated with p13^suc1 agarose. Beads were collected by centrifugation, washed with lysis buffer, and boiled in the presence of SDS-sample buffer. […] Immunoreactive bands were detected using horseradish peroxidase-conjugated secondary antibodies and the Enhanced Chemiluminescence system (ECL). […] Equal amounts of U937 cell lysates were incubated with 25 μg of either GST bound to glutathione agarose (−) or p13^suc1-agarose (+) for 1 hour at 4° C. with shaking. The beads were collected by centrifugation, and the supernatant was once more centrifuged. An equal volume of the supernatant was affinity precipitated with GST-p60Δ15. The precipitates were washed extensively, and in vitro kinase assays with histone H1 (5 μg) were performed as described below. Proteins were separated by 8% SDS-polyacrylamide gel electrophoresis and analyzed by a PhosphorImager and ImageQuant software. […] Equal amounts of U937 cell lysates were incubated with either GST bound to glutathione agarose (−) or p13^suc1-agarose (+) for 1 hour at 4° C. with shaking. The beads were collected by centrifugation, and the supernatant was once more centrifuged. An equal volume of the supernatant was affinity precipitated with either GST-p60Δ8 or GST-p60Δ15. The precipitates were washed extensively, and in vitro kinase assays with Rb^110 (0.2 μg) were performed as described below.

cdc2 = cdc2 (human, UniProt P06493); test: in vitro translated 35S-labelled protein, pull-down with GST-p80CD on glutathione agarose
Experimental: (§1) U937 cells lysates (15×10⁶/assay) were prepared and affinity precipitated with the indicated fusion protein as described below. Whole cell extracts were prepared from 2×10⁶ U937 cells by boiling the cells in 100 μl of SDS-sample buffer. Proteins were resolved by 8.5% SDS-polyacrylamide gel electrophoresis, transferred to PVDF membrane, and probed with the indicated antibodies. The mock reaction contains GST-p60Δ8 without U937 cell lysates. […] The samples were subjected to 8.5% SDS-polyacrylamide gel electrophoresis and analyzed by a PhosphorImager. Ten percent of total ^35S-labeled protein (10% input) added to each binding reaction was loaded as a standard. […] The conditions utilized for this experiment were similar to those previously described (Dyson et al., 1989). Briefly, U937 cells were either treated without or with 0.1 nM TNF for 5 minutes. […] Precipitates bound to protein A/G sepharose beads were collected by centrifugation and washed four times in lysis buffer and one time in kinase buffer. The samples were subjected to 8.5% SDS-polyacrylamide gel electrophoresis and analyzed by a PhosphorImager and ImageQuant software.

cdk2 = cdk2 (human (endogenous, U937 cells); not …, UniProt P24941); test: as above
Experimental: as §1

- binding result (cdk4): no binding
B1: p13^suc1 -agarose (other)
chain: SKSGVPRLLTASERERLEPFIDQIHYSPRYADDEYEYRHVMLPKAMLKAIPTDYFNPETGTLRILQEEEWRGLGITQSLGWEMYEVHVPEPHILLFKREKDYQMKFSQQRGG

- binding result (cdc2): no binding
- binding result (cdk2): no binding
B2: GST-p80CD (receptor)
chain: KKKPLCLQREAKVPHLPADKARGTQGPEQQHLLITAPSSSSSSLESSASALDRRAPTRNQPQAPGVEASGAGEARASTGSSDSSPGGHGTQVNVTCIVNVCSSSDHSSQCSSQASSTMGDTDSSPSESPKDEQVPFSKEECAFRSQLETPETLLGSTEEKPLPLGVPDAGMKPS
